Laboratory results reported in patent publication US20250011448A1 (STAIDSON BIOPHARMA, published 2025).

T1: human TNFR2 extracellular domain fused to human IgG1 Fc (human, UniProt P20333 23-257)
T1 construct: also called TNFR2-huFc; huTNFR2; not shown: C-terminal human IgG1 Fc
T1 sequence: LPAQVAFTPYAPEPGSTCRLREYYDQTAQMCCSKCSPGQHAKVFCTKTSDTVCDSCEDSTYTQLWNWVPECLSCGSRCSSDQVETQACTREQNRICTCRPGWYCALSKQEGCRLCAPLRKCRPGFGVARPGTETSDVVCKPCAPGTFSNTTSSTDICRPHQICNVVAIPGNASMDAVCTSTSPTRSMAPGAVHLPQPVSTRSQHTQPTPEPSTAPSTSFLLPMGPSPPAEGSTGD

T2: cynomolgus monkey TNFR2 extracellular domain as used in the blocking ELISA (cynomolgus monkey, UniProt P20333 23-257 (human entry))
T2 construct: also called cynoTNFR2
T2 chain: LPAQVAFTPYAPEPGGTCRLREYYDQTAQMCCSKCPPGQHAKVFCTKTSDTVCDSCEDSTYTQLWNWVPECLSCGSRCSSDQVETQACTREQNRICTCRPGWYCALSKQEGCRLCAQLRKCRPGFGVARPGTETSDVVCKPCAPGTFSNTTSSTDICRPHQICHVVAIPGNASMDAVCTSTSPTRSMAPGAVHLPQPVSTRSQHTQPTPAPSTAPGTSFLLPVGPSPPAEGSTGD

T3: human TNFR2 expressed on cells (Expi293 cells stably expressing huTNFR2) (human, UniProt P20333 23-461)
T3 construct: whole, on cells; Also used here as the target of the Treg assay (native TNFR2 on human primary Treg cells); also called huTNFR2 expressed cells; Expi293-TNFR2 cells
T3 sequence (looked up): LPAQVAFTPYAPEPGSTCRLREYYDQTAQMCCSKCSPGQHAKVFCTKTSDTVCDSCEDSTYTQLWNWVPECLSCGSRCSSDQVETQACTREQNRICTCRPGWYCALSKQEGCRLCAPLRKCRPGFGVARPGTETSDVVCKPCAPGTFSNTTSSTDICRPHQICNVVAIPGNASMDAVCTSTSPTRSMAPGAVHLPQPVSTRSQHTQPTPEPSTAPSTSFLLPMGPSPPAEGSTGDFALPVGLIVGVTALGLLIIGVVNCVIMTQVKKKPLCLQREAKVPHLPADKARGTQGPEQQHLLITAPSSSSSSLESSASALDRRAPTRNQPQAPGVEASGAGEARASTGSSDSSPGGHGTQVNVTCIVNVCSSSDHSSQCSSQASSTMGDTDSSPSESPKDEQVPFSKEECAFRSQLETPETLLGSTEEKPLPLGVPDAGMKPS


Key:
[1] = target: T1, human TNFR2 extracellular domain fused …; assay: blocking ELISA: antibody pre-mixed with huTNFR2, binding of huTNFR2 to coated human TNFα read out
Description: (§1) 96-well round bottom ELISA plates were coated overnight at 4° C. with 50 μL/well of 0.5 μg/mL human TNFα recombinant protein (R&D system, Cat #210-TA-100) in coating buffer. After removing the coating solution, blocking buffer was added into the plates followed by incubation at room temperature for 1 hour in order to block unspecific binding. During the blocking period, hybridoma antibodies samples were mixed with 0.5 μg/mL TNFR2-huFc at a 1:1 volume ratio and incubated at room temperature for another 1.5 hours. Then 50 μL/well of antigen-antibody mix solution was transferred into TNFα coated wells and incubated at room temperature for 1.5 hours. Plates were then washed 5 times with wash buffer. Then, 50 μL/well of goats anti-human IgG Fc-AP (Southern Biotech, cat #2014-04) at 1:2000 dilution in assay buffer was added, incubated at room temperature for 1 hour, washed 4 times with wash buffer and developed for 30 minutes with 50 μL/well of pNPP substrate. Plates were analyzed with a Synergy HT (Bio-TEK) at 405 nm. Parental hybridomas with the desired human and cynoTNFR2 binding as well as the ability to block human TNFR2 and human TNFα binding were prioritized for subcloning and further characterization. Subcloning was carried out with limited dilution and visual inspection was performed to ensure clonality. Hybridoma subclones were screened with the same binding and blocking assays and selected positive hits were cryopreserved.
(§2) TNFR2 blocking by purified recombinant chimeric antibodies: Human TNFR2 blocking ELISA was performed on purified recombinant chimeric antibodies following the same protocol as described above, except that 50 μL/well of serial dilution of purified antibodies (starting at 10 μg/mL, 1:3 dilution) in assay buffer was added into the reaction. The blocking IC₅₀ value represents the antibody concentration that inhibited 50% of huTNFR2 or cynoTNFR2 binding to coated human TNFα or cynomolgus monkey TNFα.

[2] = target: T2, cynomolgus monkey TNFR2 extracellular …; assay: blocking ELISA: antibody pre-mixed with cynoTNFR2, binding of cynoTNFR2 to coated cynomolgus monkey TNFα read out
Description: as §1, §2

[3] = target: T3, human TNFR2 expressed on cells (Expi293 …); assay: flow cytometry: inhibition of binding of 10 nM Alexa Fluor 647 human TNFα to Expi293 cells expressing huTNFR2
Description: Expi293 cells stably expressing huTNFR2 were incubated with anti-TNFR2 antibodies for 30 minutes at 4° C. […] Cells were washed and acquired by flow cytometry with Attune. Data were analyzed with FlowJo software. TNFα binding is represented as MFI.
As shown in Table 10 and FIG. 4B, the anti-TNFR2 chimeric antibodies, 51B5, 85G8.4, 29G3, 11C1, and 15H10 inhibited soluble TNFα binding to TNFR2-expressing Expi293 cells dose-dependently and potently.

IC50 [1] | IC50 [2] | IC50 [3] | Binder
584 pM | 1010 pM | 3370 pM | 15H10 chimeric anti-TNFR2 antibody (antibody, V domains shown, Chimeric: mouse variable domains with human constant regions, made as recombinant IgG1) VH: DVQLQESGPGLVTPSQSLSLTCSVTGYSITSGYYWNWIRQFPGNKLEWMGYITYDGNNNYNPSLKSRFSITRDTSKNQFFLKLNSVTSEDTATYYCARGDYGDSAMDYWGQGTSVTVSS VL: EIVLTQSPAITAASLGQKVTITCSASSGVNYMHWYQQKSGTSPKPWIYEISKLASGVPARFSGSGSGTSYSLTISSMEAEDAAIYYCQQWNYPLITFGAGTKVELK
723 pM | 1090 pM | 2510 pM | 11C1 chimeric anti-TNFR2 antibody (antibody, V domains shown, Chimeric: mouse variable domains with human constant regions, made as recombinant IgG1) VH: DVQLRESGPGLVTPSQSLSLTCSVTGYSITSGYYWNWIRQIPGNKLEWMGYITYDGNNNYDPSLKNRISITRDTSKNQFFLTLNSVTSEDTATYYCARGDYGDSAMDYWGQGTSVTVSS VL: EIVLTQSPAITAASLGQKVTITCSASSSVSYMHWYQQKSGTSPKPWIYEISKLASGVPARFSGSGSGTSYSLIISSMEAEDAAIYYCQQWNYPLITFGAGTKLELK
505 pM | 927 pM | 275 pM | 29G3 chimeric anti-TNFR2 antibody (antibody, V domains shown, Chimeric: mouse variable domains with human constant regions, made as recombinant IgG1) VH: EVMLVESGGASVKPGGSLKLSCAASGFTFSNFAMSWVRQTPEKRLEWVATIRSGDNYSYYSDNVKGRFTISRDNARNTLYLQMSSLRSKDTSIYYCARNWDKVFDYWGQGTTLTVSS VL: DIVLTQSPASLAVSLGQRATISCRASESVDSYGYSFMHWYQQKPGQPPKLLIYRASNLKSGIPARFSGSGSRTDFTLTINPVEADDVATYYCQQSNEDHTFGGGTKLEIK
583 pM | 1020 pM | 1570 pM | 85G8.4 chimeric anti-TNFR2 antibody (antibody, V domains shown, Chimeric: mouse variable domains with human constant regions, made as recombinant IgG1) VH: EVQLQQSGPELVKPGASVKISCKTSGYTFTDFNMDWVKQSHGKSLEWIGYINPNNGDAAYNQKFKSKATLTVDKSSNTAYMELHSLTSDDSAVYYCARWGWAFAYWGQGTLVTVSA VL: DIVMTQSHKIMSTSVGDRVSITCKASQDVKTAVAWYQQKPGQSPKLLIYATSYRYTGVPDRFTGSGSGTDFTFTISTVQAEDLAVYYCQQHYSIPYTFGGGTKLEIK
